The values that follow come from the RNAGym collection of RNA variant scans (doi:10.7554/elife.90254).

To fix the notation:
B1: OR4K15 (parent)
chain: GUUAACGGUCAUAGGCCAUGGAAACUAGGAGCACCAUUUCGCUGCCAGUGAAGAAAUGAACAAAGAAAAUCUGGGCCAGGCAGGCAUCAAAAGAAAUAGUCUUGCGCUCAACCAGAAAGUCUGUAAUCAUUUUAAGGGUA

The variants in the data set derive from B1. Description: self-cleavage, relative activity (ratio to wild type); higher = more cleavage; in vitro, sequencing; the parent is a self-cleaving ribozyme.
Turning to GUUAACGGUCAUAGGCCAUGGAAACUAGGAGCACCAUUUCGCUGCCAGUGAAGAAAUGAACAAAGCGAAUCUGGGCCAGGCAGGCAUCAAAAGAAAUAGUCUUGCGCUCAACCAGAAAGUCUGUAAUCAUUUUAAGGGUA [A66C A67G], the self-cleavage stood at 0.46.

Take GUUAACGGUCAUAGGCCAUGGAAACUAGGAGCACCAUUUCGCUGCCAGUGAAGAAAUGAACAAAGGAAAUCUGGGCCUGGCAGGCAUCAAAAGAAAUAGUCUUGCGCUCAACCAGAAAGUCUGUAAUCAUUUUAAGGGUA [A66G A78U]: the self-cleavage is 0.5.

For GUUAACGGUCAUAGGCCAUGGAAACUAGGAGCACCAUUUCGCUGCCAGUGAAGAAAUGAACAAUGAAAAUCUGGGCCAGGCAGGCAUCAAAAGAAAUAGUCUUGCGCUCAACCAGAAAGUCUGUAACCAUUUUAAGGGUA [A64U U127C], the self-cleavage is 1.66.

For GUUAACGGUCAUAGGCCAUGGAAACUAGGAGCACCAUUUCGCUGCCAGUGAAGAAAUGAACAAAGGAAGUCUGGGCCAGGCAGGCAUCAAAAGAAAUAGUCUUGCGCUCAACCAGAAAGUCUGUAAUCAUUUUAAGGGUA [A66G A69G], the self-cleavage turned out to be 1.02.

Take GUUAACGGUCAUAGGCCAUGGAAACUAGGAGCACCAUUUCGCUGCCAGUGAAGAAAUGAACAAAGGAACUCUGGGCCAGGCAGGCAUCAAAAGAAAUAGUCUUGCGCUCAACCAGAAAGUCUGUAAUCAUUUUAAGGGUA [A66G A69C]: the self-cleavage came to 1.67.

For the variant GUUAACGGUCAUAGGCCAUGGAAACUAGGAGCACCAUUUCGCUGCCAGUGAAGAAAUGAACAAAAAAAAUCUGGGCCGGGCAGGCAUCAAAAGAAAUAGUCUUGCGCUCAACCAGAAAGUCUGUAAUCAUUUUAAGGGUA [G65A A78G], the self-cleavage was 0.2.

In the case of GUUAACGGUCAUAGGCCAUGGAAACUAGGAGCACCAUUUCGCUGCCAGUGAAGAAAUGAACAAAAGAAAUCUGGGCCAGGCAGGCAUCAAAAGAAAUAGUCUUGCGCUCAACCAGAAAGUCUGUAAUCAUUUUAAGGGUA [G65A A66G], the self-cleavage came out at 1.13.

As for GUUAACGGUCAUAGGCCAUGGAAACUAGGAGCACCAUUUCGCUGCCAGUGAAGAAAUGAACAAAGGAAAUCUGGGCCAGGCAGGCAUCGAAAGAAAUAGUCUUGCGCUCAACCAGAAAGUCUGUAAUCAUUUUAAGGGUA [A66G A89G], the self-cleavage is 1.62.

As to GUUAACGGUCAUAGGCCAUGGAAACUAGGAGCACCAUUUCGCUGCCAGUGAAGAAAUGAACAAAUAAAAUCUGGGCCAGGCAGGCACCAAAAGAAAUAGUCUUGCGCUCAACCAGAAAGUCUGUAAUCAUUUUAAGGGUA [G65U U87C], the self-cleavage came out at 2.23.

On to GUUAACGGUCAUAGGCCAUGGAAACUAGGAGCACCAUUUCGCUGCCAGUGAAGAAAUGAACAAUGAAAAUCUGGGCCAGGCAGGCAUCAAAAGAAAUAGUCCUGCGCUCAACCAGAAAGUCUGUAAUCAUUUUAAGGGUA [A64U U102C], for which the self-cleavage amounted to 2.23.

For the variant GUUAACGGUCAUAGGCCAUGGAAACUAGGAGCACCAUUUCGCUGCCAGUGAAGAAAUGAACAAUGAAAAUCUGGGCCAGGCAGGCAUCAAAAGAAAUAGUCUUGCGCCCAACCAGAAAGUCUGUAAUCAUUUUAAGGGUA [A64U U108C], the self-cleavage turned out to be 0.02.

Consider GUUAACGGUCAUAGGCCAUGGAAACUAGGAGCACCAUUUCGCUGCCAGUGAAGAAAUGAACAAAGGAAAUCUGGGCCAGGCGGGCAUCAAAAGAAAUAGUCUUGCGCUCAACCAGAAAGUCUGUAAUCAUUUUAAGGGUA [A66G A82G], for which the self-cleavage amounted to 0.26.

For the variant GUUAACGGUCAUAGGCCAUGGAAACUAGGAGCACCAUUUCGCUGCCAGUGAAGAAAUGAACAAAAAAAAUCUGGGCCAGGCAGGCAUCAAGAGAAAUAGUCUUGCGCUCAACCAGAAAGUCUGUAAUCAUUUUAAGGGUA [G65A A91G], the self-cleavage worked out at 0.96.

With GUUAACGGUCAUAGGCCAUGGAAACUAGGAGCACCAUUUCGCUGCCAGUGAAGAAAUGAACAAAGCAAAUCUGGGCCAGGCAGGCAUCAAAAGAAAUAGUCUUGCGCUCAACCAGAAAGUCUGUAAUCAUAUUAAGGGUA [A66C U131A], the self-cleavage is 1.1.

As for GUUAACGGUCAUAGGCCAUGGAAACUAGGAGCACCAUUUCGCUGCCAGUGAAGAAAUGAACAAAUAAAAUCUGGGCCAGGCAGGCAUCAAAAGAAAUAGUCUUGCGCUCAGCCAGAAAGUCUGUAAUCAUUUUAAGGGUA [G65U A111G], the self-cleavage amounted to 0.06.

On to GUUAACGGUCAUAGGCCAUGGAAACUAGGAGCACCAUUUCGCUGCCAGUGAAGAAAUGAACAAUGAAAAUCUGGGCCAGGCAGGCAUCAAAAGAAAUAGUCUCGCGCUCAACCAGAAAGUCUGUAAUCAUUUUAAGGGUA [A64U U103C], for which the self-cleavage stood at 0.87.

As for GUUAACGGUCAUAGGCCAUGGAAACUAGGAGCACCAUUUCGCUGCCAGUGAAGAAAUGAACAAUGAAAAUCUGGGCCAGGCAGGCAUCAAAAGAAAUAGUCUAGCGCUCAACCAGAAAGUCUGUAAUCAUUUUAAGGGUA [A64U U103A], the self-cleavage stood at 1.08.

Take GUUAACGGUCAUAGGCCAUGGAAACUAGGAGCACCAUUUCGCUGCCAGUGAAGAAAUGAACAAAGGUAAUCUGGGCCAGGCAGGCAUCAAAAGAAAUAGUCUUGCGCUCAACCAGAAAGUCUGUAAUCAUUUUAAGGGUA [A66G A67U]: the self-cleavage stood at 1.61.

Take GUUAACGGUCAUAGGCCAUGGAAACUAGGAGCACCAUUUCGCUGCCAGUGAAGAAAUGAACAAAGGCAAUCUGGGCCAGGCAGGCAUCAAAAGAAAUAGUCUUGCGCUCAACCAGAAAGUCUGUAAUCAUUUUAAGGGUA [A66G A67C]: the self-cleavage turned out to be 1.66.

As to GUUAACGGUCAUAGGCCAUGGAAACUAGGAGCACCAUUUCGCUGCCAGUGAAGAAAUGAACAAAGCAAAUCUGGGCCAGGCAGGCAUCAAAAGAAAUAGUCUUGCGCUCAACAAGAAAGUCUGUAAUCAUUUUAAGGGUA [A66C C113A], the self-cleavage came out at 0.02.

Turning to GUUAACGGUCAUAGGCCAUGGAAACUAGGAGCACCAUUUCGCUGCCAGUGAAGAAAUGAACAAUGAAAAUCUGGGCCAGGCAGGCAUCAAAAGAAAUAGUCUUGCGCUCAACCAGAAAGUCAGUAAUCAUUUUAAGGGUA [A64U U122A], the self-cleavage stood at 1.78.
